Experiment [1] concerns the target T1, type I interferon receptor (UniProt P17181 28-557; P48551 27-515, limits assumed).
T1 sequence (looked up) 1: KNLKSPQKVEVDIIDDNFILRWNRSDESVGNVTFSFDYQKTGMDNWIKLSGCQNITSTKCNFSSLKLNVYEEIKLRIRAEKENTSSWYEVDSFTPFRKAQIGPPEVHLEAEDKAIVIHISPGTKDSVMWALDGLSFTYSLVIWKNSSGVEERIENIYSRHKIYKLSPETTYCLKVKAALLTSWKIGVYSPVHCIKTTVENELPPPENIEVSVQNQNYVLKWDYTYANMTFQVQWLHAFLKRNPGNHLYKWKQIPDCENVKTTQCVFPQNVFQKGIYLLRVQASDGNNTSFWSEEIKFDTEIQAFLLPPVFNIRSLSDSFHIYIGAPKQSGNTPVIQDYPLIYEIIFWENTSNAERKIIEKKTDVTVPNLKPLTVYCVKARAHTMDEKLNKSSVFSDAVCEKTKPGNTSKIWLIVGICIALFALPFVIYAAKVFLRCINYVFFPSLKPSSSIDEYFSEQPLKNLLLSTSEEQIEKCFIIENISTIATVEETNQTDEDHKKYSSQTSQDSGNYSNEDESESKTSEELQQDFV
T1 sequence (looked up) 2: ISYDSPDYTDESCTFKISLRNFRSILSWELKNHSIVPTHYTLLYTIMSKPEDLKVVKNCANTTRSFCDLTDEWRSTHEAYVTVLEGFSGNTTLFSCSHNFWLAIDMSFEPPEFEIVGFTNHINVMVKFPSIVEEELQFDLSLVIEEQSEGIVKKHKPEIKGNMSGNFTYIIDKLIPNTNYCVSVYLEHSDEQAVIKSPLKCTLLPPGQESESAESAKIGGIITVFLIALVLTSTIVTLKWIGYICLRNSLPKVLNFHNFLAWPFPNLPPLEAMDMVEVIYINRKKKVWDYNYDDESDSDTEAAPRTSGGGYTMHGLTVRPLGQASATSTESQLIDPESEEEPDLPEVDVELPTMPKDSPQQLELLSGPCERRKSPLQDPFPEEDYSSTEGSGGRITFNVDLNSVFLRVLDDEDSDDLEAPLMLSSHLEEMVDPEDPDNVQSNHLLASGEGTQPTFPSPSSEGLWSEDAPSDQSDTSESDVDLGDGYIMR
Nature of the experiment: cell-based or functional assay.

In experiment [2] the target is T1, type I interferon receptor. Nature of the experiment: cell-based or functional assay. The source holds these as a separate data set.

Like-named read-outs stand apart in the source and are kept apart here.

B1: IFN1_1 (ligand)
chain: MGSSHHHHHHSSGLVPRGSHMSYNLLGFLQRSSNFQSQKLLWQLNGRLEYCLKDRMNFDIPEEIKQLQQFQKEDAALTIYEMLQNIFAIFRQDSSSTGWNETIVENLLANVYHQINHLKTVLEEKLEKEDFTRGKLMSSLHLKRYYGRILHYLKAKEYSHCAWTIVRVEILRNFYFINRLTGYLRN
Take B1: the “EC50, ISRE-luciferase reporter assay in 293T cells” value in experiment [1] amounted to 1.9 ng/mL; in experiment [2], 5.31 ng/mL. Also, the “EC50 wt/EC50 var, ISRE-luciferase reporter assay in 293T cells” value (from here on “EC50 wt/EC50 var”) in experiment [1] and in experiment [2] was 1 ratio in each case.

B2: IFB1_36 (ligand)
chain: MGSSHHHHHHSSGLVPRGSHMSYNLLGELQRSSNFQSQKLLWQLNGRLEYCLKDRMNFDIPEEIKQLQQFQKEDAALTIYEMLQNIFAIFRQDSSSTGWNETIVENLLANVYHQINHLKTVLEEKLEKEDNTRGKEMSSLHLKRYYGRILHYLKAKEYSHCAWTIVRVEILRNFYFINRLTGYLRN
For the molecule B2, in experiment [2], the “EC50, ISRE-luciferase reporter assay in 293T cells” value was 0.294 log ng/ml and the “EC50 wt/EC50 var” value is 18 ratio.

B3: IFB_GM2 (ligand)
chain: MGSSHHHHHHSSGLVPRGSHMSYNLLGFLQRSSNFQSQKLLWQLNGRLEYCLKDRMNFDIPEEIKQSQQSQKEDAALTIYEMLQNIFAIFRQDSSSTGWNETIVENLLANVYHQINHLKTVLEEKSEKEDSTRGKSMSSSHLKRYYGRILHYLKAKEYSHCAWTIVRVEILRNFYFINRLTGYLRN
B3: in experiment [1], the “EC50, ISRE-luciferase reporter assay in 293T cells” value was 130 ng/mL and the “EC50 wt/EC50 var” value came to 0.015 ratio.

B4: IFB1_39 (ligand)
chain: MGSSHHHHHHSSGLVPRGSHMSYNQLGELQRSSNFQSQKLLWQLNGRLEYCLKDRMNFDIPEEIKQLQQFQKEDAALTIYEMLQNIFAIFRQDSSSTGWNETIVENLLANVYHQINHLKTVLEEKLEKEDNTRGKEMSSLHLKRYYGRILHYLKAKEYSHCAWTIVRVEILRNFYFINRLTGYLRN
As for B4, in experiment [2], the “EC50, ISRE-luciferase reporter assay in 293T cells” value is 0.193 log ng/ml and the “EC50 wt/EC50 var” value came out at 27.5 ratio.

B5: IFB1_7 (ligand)
chain: MGSSHHHHHHSSGLVPRGSHMSYNQLGELQRSSNFQSQKLLWQLNGRLEYCLKDRMNFDIPEEIKQLQQFQKEDAALTIYEMLQNIFAIFRQDSSSTGWNETIVENLLANVYHQINHLKTVLEEKLEKEDFTRGKLMSSLHLKRYYGRILHYLKAKEYSHCAWTIVRVEILRNFYFINRLTGYLRN
Regarding B5, in experiment [1], the “EC50, ISRE-luciferase reporter assay in 293T cells” value is 0.074 ng/mL and the “EC50 wt/EC50 var” value came out at 25.7 ratio. In addition, in experiment [2], the “EC50, ISRE-luciferase reporter assay in 293T cells” value worked out at 0.179 log ng/ml and the “EC50 wt/EC50 var” value was determined as 29.6 ratio.

B6: IFB1_23 (ligand)
chain: MGSSHHHHHHSSGLVPRGSHMSYNQLGELQRSSNFQSQKLLWQLNGRLEYCLKDRMNFDIPEEIKQLQQFQKEDAALTIYEMLQNIFAIFRQDSSSTGWNETIVENLLANVYHQINHLKTVLEEKLEKEDFTRGKEMSSLHLKRYYGRILHYLKAKEYSHCAWTIVRVEILRNFYFINRLTGYLRN
For B6, in experiment [2], the “EC50, ISRE-luciferase reporter assay in 293T cells” value is 0.277 log ng/ml and the “EC50 wt/EC50 var” value is 19.2 ratio.

B7: IFB1_15 (ligand)
chain: MGSSHHHHHHSSGLVPRGSHMSYNQLGELQRSSNFQSQKLLWQLNGRLEYCLKDRMNFDIPEEIKQLQQFQKEDAALTIYEMLQNIFAIFRQDSSSTGWNETIVENLLANVYHQINHLKTVLEEKLEKEDNTRGKLMSSLHLKRYYGRILHYLKAKEYSHCAWTIVRVEILRNFYFINRLTGYLRN
Turning to B7, in experiment [2], the “EC50, ISRE-luciferase reporter assay in 293T cells” value came out at 0.319 log ng/ml and the “EC50 wt/EC50 var” value turned out to be 16.6 ratio.

B8: IFB1_64 (ligand)
chain: MGSSHHHHHHSSGLVPRGSHMSYNQLGELQRSSNFQSQKLLWQLNGRLEYCLKDRMNFDIPEEIKQKQQFQKEDAALTIYEMLQNIFAIFRQDSSSTGWNETIVENLLANVYHQINHLKTVLEEKLEKEDNTRGKEMSSRHLKRYYGRILHYLKAKEYSHCAWTIVRVEILRNFYFINRLTGYLRN
For B8, in experiment [2], the “EC50, ISRE-luciferase reporter assay in 293T cells” value stood at 0.24 log ng/ml and the “EC50 wt/EC50 var” value is 22.1 ratio.

B9: IFB1_2 (ligand)
chain: MGSSHHHHHHSSGLVPRGSHMSYNQLGFLQRSSNFQSQKLLWQLNGRLEYCLKDRMNFDIPEEIKQLQQFQKEDAALTIYEMLQNIFAIFRQDSSSTGWNETIVENLLANVYHQINHLKTVLEEKLEKEDFTRGKLMSSLHLKRYYGRILHYLKAKEYSHCAWTIVRVEILRNFYFINRLTGYLRN
B9: in experiment [2], the “EC50, ISRE-luciferase reporter assay in 293T cells” value was found to be 0.428 log ng/ml and the “EC50 wt/EC50 var” value came out at 12.4 ratio.

(Values after patent publication US20040137581A1 (Xencor, published 2004).)
